Experimental data published in publication PMC4157730 (Journal of molecular biology, 2012).

Assays:
[1] = target: the molecule itself; experiment: negative staining transmission electron microscopy
AUC = target: the molecule itself; experiment: AUC

B1: human apolipoprotein (apo) C-II (natural protein, UniProt P02655 23-101, looked up)
chain: TQQPQQDEMPSPTFLTQVKESLSSYWESAKTAAQNLYEKTYLPAVDEKLRDLYSKSTAAMSTYTGIFTDQVLSVLKGEE
**Q.** Which results are given for B1?
**A.** stoichiometry N [1]: ~621 subunits; Ka (AUC): 3.27e+11 M⁻¹
